Here are results for 6 molecules from paper PMC6335420, “The cell cycle regulator GpsB functions as cytosolic adaptor for multiple cell wall enzymes” (Nature Communications, 2019).

Sequences and labels used below:
B5: BsGpsB_(1-68) (domain or fragment, B. subtilis, UniProt P0CI74 1-68, looked up)
chain: MLADKVKLSAKEILEKEFKTGVRGYKQEDVDKFLDMIIKDYETFHQEIEELQQENLQLKKQLEEASKK
notes: GpsB, Bacillus subtilis, residues 1-68; also called N-terminal domain of BsGpsB; source: E. coli, purified (Ni-NTA, thrombin, size exclusion)

What all share (settings): both partners purified
The target of assay [1] is T1, full-length BsPBP1 (Bacillus subtilis PBP1) (B. subtilis, UniProt P39793 1-914).
T1 construct: also called wild-type BsPBP1; source: E. coli, purified from membrane pellets (His select resin, thrombin, Superdex S200)
T1 sequence (looked up): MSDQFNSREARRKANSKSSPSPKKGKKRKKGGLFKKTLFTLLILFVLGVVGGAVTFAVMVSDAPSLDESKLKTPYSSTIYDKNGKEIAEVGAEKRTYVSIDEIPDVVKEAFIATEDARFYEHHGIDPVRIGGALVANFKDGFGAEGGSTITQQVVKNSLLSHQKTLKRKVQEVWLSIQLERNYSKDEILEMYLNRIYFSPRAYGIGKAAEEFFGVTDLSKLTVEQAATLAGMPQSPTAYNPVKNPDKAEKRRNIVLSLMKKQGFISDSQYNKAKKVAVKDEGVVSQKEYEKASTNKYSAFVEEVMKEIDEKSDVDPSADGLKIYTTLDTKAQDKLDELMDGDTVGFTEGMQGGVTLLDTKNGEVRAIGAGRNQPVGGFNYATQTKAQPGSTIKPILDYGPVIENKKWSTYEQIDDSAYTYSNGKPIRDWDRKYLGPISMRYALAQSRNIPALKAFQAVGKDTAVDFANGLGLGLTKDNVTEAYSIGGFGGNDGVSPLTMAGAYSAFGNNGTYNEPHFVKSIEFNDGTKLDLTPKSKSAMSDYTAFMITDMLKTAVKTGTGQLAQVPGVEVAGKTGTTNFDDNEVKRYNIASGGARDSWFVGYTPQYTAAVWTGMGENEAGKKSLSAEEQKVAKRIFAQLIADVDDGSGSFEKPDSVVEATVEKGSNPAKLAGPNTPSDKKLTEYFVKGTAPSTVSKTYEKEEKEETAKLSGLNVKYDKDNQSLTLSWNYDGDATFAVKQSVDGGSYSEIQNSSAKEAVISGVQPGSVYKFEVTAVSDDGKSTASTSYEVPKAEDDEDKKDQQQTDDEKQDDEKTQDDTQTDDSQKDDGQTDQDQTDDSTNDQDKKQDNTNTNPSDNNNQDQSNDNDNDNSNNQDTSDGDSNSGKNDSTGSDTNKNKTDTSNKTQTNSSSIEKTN
Description: SPR. (In SPR one partner is held on a chip, and binding of the other changes the refractive index at the surface.)

Assay [2] concerns the target T2, BsGpsB_(5-64) (B. subtilis 168, UniProt P0CI74 5-64).
T2 construct: GpsB, Bacillus subtilis 168, residues 5-64; two molecules in the asymmetric unit; also called N-terminal domain of BsGpsB, termini truncated; source: E. coli, purified (Ni-NTA, TEV, Superdex 75); not shown: His6, N-terminal, cleaved
T2 sequence (looked up): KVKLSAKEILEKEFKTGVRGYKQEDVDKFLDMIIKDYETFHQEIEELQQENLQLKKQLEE
Description: crystal structure; co-crystallisation of GpsB N-terminal domain with PBP peptide, 1:5 molar ratio protein:peptide, room temperature.

Assay [3] addresses T3, BsGpsB1-68 Tyr25Phe (B. subtilis, UniProt P0CI74 1-68, Tyr25Phe).
T3 construct: GpsB, Bacillus subtilis, residues 1-68 (N-terminal domain); also called BsGpsB1-68 Y25F; source: E. coli BL21(DE3), purified (Ni-NTA, thrombin removal of the His6-tag, SEC); not shown: His6, N-terminal, cleaved
T3 sequence (looked up): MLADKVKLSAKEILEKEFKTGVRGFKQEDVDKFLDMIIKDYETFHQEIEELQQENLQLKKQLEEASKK
Briefly: fluorescence polarisation; GpsB protein titrated into TAMRA- or fluorescein-labelled peptide; 10 mM Tris.HCl pH 8.0, 250 mM NaCl, 0.1% reduced Triton X-100; all data fitted to a 1:1 interaction model, Kd ± standard error. For orientation: Polarisation of emitted light reports the rotation of a fluorescent probe.

Assay [4] deals with T4, BsGpsB1-68 (B. subtilis, UniProt P0CI74 1-68).
T4 construct: GpsB, Bacillus subtilis, residues 1-68 (N-terminal domain); also called N-terminal domain of B. subtilis GpsB; wildtype BsGpsB1-68; source: E. coli BL21(DE3), purified (Ni-NTA, thrombin removal of the His6-tag, SEC); not shown: His6, N-terminal, cleaved
T4 sequence (looked up): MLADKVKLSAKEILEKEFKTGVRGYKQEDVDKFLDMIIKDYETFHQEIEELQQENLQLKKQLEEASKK
The assay is described as above.

The target of assay [5] is T5, BsGpsB1-68 Glu17Ala (B. subtilis, UniProt P0CI74 1-68, Glu17Ala).
T5 construct: GpsB, Bacillus subtilis, residues 1-68 (N-terminal domain); also called BsGpsB1-68 E17A; source: E. coli BL21(DE3), purified (Ni-NTA, thrombin removal of the His6-tag, SEC); not shown: His6, N-terminal, cleaved
T5 sequence (looked up): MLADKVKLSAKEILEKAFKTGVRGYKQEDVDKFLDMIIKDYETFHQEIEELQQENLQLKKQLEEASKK
Described as above.

In assay [6] the target is T6, BsGpsB1-68 Asp35Ala (B. subtilis, UniProt P0CI74 1-68, Asp35Ala).
T6 construct: GpsB, Bacillus subtilis, residues 1-68 (N-terminal domain); also called BsGpsB1-68 D35A; source: E. coli BL21(DE3), purified (Ni-NTA, thrombin removal of the His6-tag, SEC); not shown: His6, N-terminal, cleaved
T6 sequence (looked up): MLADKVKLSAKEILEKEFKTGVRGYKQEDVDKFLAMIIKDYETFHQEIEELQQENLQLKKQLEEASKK
Described as above.

Assay [7] addresses T7, BsGpsB1-68 Asp31Ala (B. subtilis, UniProt P0CI74 1-68, Asp31Ala).
T7 construct: GpsB, Bacillus subtilis, residues 1-68 (N-terminal domain); also called BsGpsB1-68 D31A; source: E. coli BL21(DE3), purified (Ni-NTA, thrombin removal of the His6-tag, SEC); not shown: His6, N-terminal, cleaved
T7 sequence (looked up): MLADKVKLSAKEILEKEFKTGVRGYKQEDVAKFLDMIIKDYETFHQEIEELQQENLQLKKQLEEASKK
The assay is described as above.

The target in assay [8] is T8, BsGpsB (B. subtilis, UniProt P0CI74 1-98).
T8 construct: GpsB, Bacillus subtilis, full-length protein; purification not described here; also called full-length B. subtilis GpsB
T8 sequence (looked up): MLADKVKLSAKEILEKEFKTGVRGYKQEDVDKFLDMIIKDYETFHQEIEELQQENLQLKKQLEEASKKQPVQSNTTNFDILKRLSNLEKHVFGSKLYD
The description is as above.

For assay [9], the target named is T9, SpPBP2a_(23-45), TAMRA-labelled (S. pneumoniae R6, UniProt Q8DNB6 23-45, Gly43 to cysteine, TAMRA (maleimide) label).
T9 construct: source: E. coli, His-tagged MBP fusion purified (Ni-NTA), labelled, TEV-cleaved, ultrafiltration
T9 peptide: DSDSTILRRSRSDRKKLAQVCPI
Briefly: fluorescence polarisation.

Assay [10] concerns the target T10, BsPBP1_(1-32)^Ser7Ala, TAMRA-labelled at position 16 (B. subtilis, UniProt P39793 1-32, Ser16Cys | Ser7Ala, TAMRA (maleimide) at position 16).
T10 construct: PBP1, Bacillus subtilis, residues 1-32; source: E. coli, His-tagged MBP fusion purified (Ni-NTA), labelled, TEV-cleaved, ultrafiltration
T10 peptide (looked up): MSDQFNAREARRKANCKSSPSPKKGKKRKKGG
Description: fluorescence polarisation; GpsB protein titrated into fluorescently labelled peptide; 10 mM Tris.HCl pH 8.0, 250 mM NaCl, 0.1% reduced Triton X-100; fit to a 1:1 interaction model.

Assay [11] deals with T11, BsPBP1_(1-32)^Arg11Ala, TAMRA-labelled at position 16 (B. subtilis, UniProt P39793 1-32, Ser16Cys | Arg11Ala, TAMRA (maleimide) at position 16).
T11 construct: PBP1, Bacillus subtilis, residues 1-32; also called BsPBP1^Arg11Ala; source: E. coli, His-tagged MBP fusion purified (Ni-NTA), labelled, TEV-cleaved, ultrafiltration
T11 peptide (looked up): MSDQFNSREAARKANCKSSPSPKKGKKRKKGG
The description is as above.

For assay [12], the target named is T12, BsPBP1_(1-32)^Ala10Pro, TAMRA-labelled at position 16 (B. subtilis, UniProt P39793 1-32, Ser16Cys | Ala10Pro, TAMRA (maleimide) at position 16).
T12 construct: PBP1, Bacillus subtilis, residues 1-32; source: E. coli, His-tagged MBP fusion purified (Ni-NTA), labelled, TEV-cleaved, ultrafiltration
T12 peptide (looked up): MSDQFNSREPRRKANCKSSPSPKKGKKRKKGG
The assay is described as above.

Assay [13] deals with T13, BsPBP1_(1-32)^Arg8Lys, TAMRA-labelled at position 16 (B. subtilis, UniProt P39793 1-32, Ser16Cys | Arg8Lys, TAMRA (maleimide) at position 16).
T13 construct: PBP1, Bacillus subtilis, residues 1-32; also called BsPBP1^Arg8Lys; source: E. coli, His-tagged MBP fusion purified (Ni-NTA), labelled, TEV-cleaved, ultrafiltration
T13 peptide (looked up): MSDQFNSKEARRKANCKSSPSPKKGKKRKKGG
The assay is described as above.

Assay [14] deals with T14, BsPBP1_(1-32)^Arg8Ala, TAMRA-labelled at position 16 (B. subtilis, UniProt P39793 1-32, Ser16Cys | Arg8Ala, TAMRA (maleimide) at position 16).
T14 construct: PBP1, Bacillus subtilis, residues 1-32; also called BsPBP1^Arg8Ala; source: E. coli, His-tagged MBP fusion purified (Ni-NTA), labelled, TEV-cleaved, ultrafiltration
T14 peptide (looked up): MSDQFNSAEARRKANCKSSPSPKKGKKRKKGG
The description is as above.

Assay [15] addresses B5. Description: fluorescence polarisation.

No end group written: not given here.

B1: BsYrrS_(Δ13-16) (natural protein)
chain: MSNNQSRYENRDANLVLNILIAIVSILIVVVAANLFINSPSSKDVSKDSETAQKQESPASGKTEKKSDEDIKDSKKDTSDSEKDSEKSSDSDSKKDDSSSKKDDSDSDSSSDSAGDGLKDAKVTEGGSSSDVEKTYENPDWKAVGTEQTGEHAATYDSSSQDWAEMLKAISYATGVSTDNMTVLWLGNNGSPQDAKGKILDKATGNKYQVTITWVDEKGWKPTKVEKLK
notes: source: E. coli BL21(DE3), purified from membranes (Ni-NTA, Superdex 200)
With B1, binding in assay [1] was characterised by a dissociation constant (Kd) of 20 nM.

B2: BsPBP1_(1-17) (peptide, UniProt P39793 1-17, looked up)
peptide: MSDQFNSREARRKANSK
notes: PBP1, Bacillus subtilis, residues 1-17; also called first 17 amino acids of BsPBP1; source: synthetic peptide
As for B2, in assay [2], the binding result is reported as “binds”.

B3: TAMRA-BsPBP11-32 wildtype (peptide)
peptide: GSMADQFNSREARRKANC(TAMRA‑maleimide)KSSPSPKKGKKRKKGG
notes: PBP1 (ponA), Bacillus subtilis, residues 1-32, cytoplasmic mini-domain; also called TAMRA-labelled BsPBP1 1-32 (Ser16Cys); 16-labelled peptide
For B3, the Kd (as a rule, a measure of binding affinity in units of concentration) in assay [3] is > 2 mM; in assay [4], 120 µM; in assay [5], > 1.3 mM; in assay [6], > 2 mM; in assay [7], > 1.9 mM; in [8], 160 µM.

B4: SpGpsB_(1-63)^Asp33Ala (domain or fragment)
chain: MASIIFSAKDIFEQEFGREVRGYNKVEVDEFLADVIKDYETYAALVKSLRQEIADLKEELTRK
notes: also called SpGpsB^Asp33Ala; source: E. coli, purified (Ni-NTA, thrombin, ammonium sulphate precipitation, gel filtration)
Regarding B4, the “fold reduction in affinity against wild type” value in assay [9] is ~40 fold.
Regarding B5, the “fold reduction in affinity against wild type” value in assay [10] was ≥ 6 fold; in assay [11], ≥ 5 fold; in assay [12], ≥ 6 fold; in assay [13], ≥ 5 fold; in assay [14], ≥ 5 fold.

B6: BsYpbE_(1-21), fluorescein-labelled (peptide)
peptide: MTNMSRVERRKAQNLYEDQNA
modifications: also: fluorescein label, position not given here
notes: also called 21-residue fragment of the cytoplasmic domain of BsYpbE; source: synthetic peptide
Consider B6, for which the Kd in [15] amounted to 13 µM.
